Publication PMC11931385, “Structural and functional analysis of cancer-associated missense variants in the retinoblastoma protein pocket domain” (The Journal of Biological Chemistry, 2025)
No end group written: not given here. TMR = tetramethyl rhodamine dye

T1: Rb^P T687I (human, UniProt P06400 380-788, T687I)
T1 construct: also called variant 59
T1 sequence (looked up): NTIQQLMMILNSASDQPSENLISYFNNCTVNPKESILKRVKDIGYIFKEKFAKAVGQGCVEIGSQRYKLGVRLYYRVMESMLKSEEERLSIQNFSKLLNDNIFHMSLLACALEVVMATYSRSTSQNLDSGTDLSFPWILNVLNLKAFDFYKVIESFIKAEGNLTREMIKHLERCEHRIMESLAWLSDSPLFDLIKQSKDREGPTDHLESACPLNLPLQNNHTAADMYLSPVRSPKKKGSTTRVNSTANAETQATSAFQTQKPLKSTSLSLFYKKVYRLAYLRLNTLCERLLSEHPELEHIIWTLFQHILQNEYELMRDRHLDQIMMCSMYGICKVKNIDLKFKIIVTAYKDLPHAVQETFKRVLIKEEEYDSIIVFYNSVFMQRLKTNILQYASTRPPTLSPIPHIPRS

T2: Rb^P I703F (human, UniProt P06400 380-788, I703F)
T2 construct: also called variant 64
T2 sequence (looked up): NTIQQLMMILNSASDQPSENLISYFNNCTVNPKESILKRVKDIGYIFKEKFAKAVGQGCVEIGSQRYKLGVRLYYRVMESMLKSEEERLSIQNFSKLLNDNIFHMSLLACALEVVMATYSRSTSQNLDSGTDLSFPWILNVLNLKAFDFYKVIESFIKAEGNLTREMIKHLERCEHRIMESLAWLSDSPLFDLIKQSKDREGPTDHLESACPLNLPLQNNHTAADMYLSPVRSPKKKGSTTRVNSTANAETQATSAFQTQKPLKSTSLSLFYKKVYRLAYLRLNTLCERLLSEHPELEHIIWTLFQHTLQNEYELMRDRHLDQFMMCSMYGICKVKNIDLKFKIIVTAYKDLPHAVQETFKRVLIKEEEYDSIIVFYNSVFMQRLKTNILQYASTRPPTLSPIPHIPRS

T3: Rb^P S443L (human, UniProt P06400 380-788, S443L)
T3 construct: also called variant 2
T3 sequence (looked up): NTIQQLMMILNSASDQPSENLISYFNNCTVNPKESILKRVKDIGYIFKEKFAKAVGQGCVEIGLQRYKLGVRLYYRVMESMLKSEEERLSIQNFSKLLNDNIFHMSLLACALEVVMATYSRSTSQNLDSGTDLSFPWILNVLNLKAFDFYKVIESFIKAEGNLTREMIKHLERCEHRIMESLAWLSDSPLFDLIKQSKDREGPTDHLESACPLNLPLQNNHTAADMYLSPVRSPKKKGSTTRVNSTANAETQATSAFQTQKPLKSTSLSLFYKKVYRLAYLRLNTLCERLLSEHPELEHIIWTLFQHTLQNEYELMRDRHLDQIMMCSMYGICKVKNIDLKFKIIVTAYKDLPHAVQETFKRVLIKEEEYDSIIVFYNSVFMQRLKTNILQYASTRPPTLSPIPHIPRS

T4: Rb^P R621P (human, UniProt P06400 380-788, R621P)
T4 construct: also called variant 43
T4 sequence (looked up): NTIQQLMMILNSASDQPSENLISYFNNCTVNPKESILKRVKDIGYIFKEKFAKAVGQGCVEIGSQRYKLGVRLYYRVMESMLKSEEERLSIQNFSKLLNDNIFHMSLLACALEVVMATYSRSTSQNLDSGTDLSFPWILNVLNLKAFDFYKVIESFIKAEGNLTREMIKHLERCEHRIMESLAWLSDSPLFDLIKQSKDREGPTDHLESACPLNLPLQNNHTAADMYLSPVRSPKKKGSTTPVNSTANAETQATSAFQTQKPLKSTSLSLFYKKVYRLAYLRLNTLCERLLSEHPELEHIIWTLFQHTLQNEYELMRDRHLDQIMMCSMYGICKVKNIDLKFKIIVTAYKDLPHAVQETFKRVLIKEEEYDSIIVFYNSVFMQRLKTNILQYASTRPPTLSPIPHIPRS

T5: Rb^P S474N (human, UniProt P06400 380-788, S474N)
T5 construct: also called variant 12
T5 sequence (looked up): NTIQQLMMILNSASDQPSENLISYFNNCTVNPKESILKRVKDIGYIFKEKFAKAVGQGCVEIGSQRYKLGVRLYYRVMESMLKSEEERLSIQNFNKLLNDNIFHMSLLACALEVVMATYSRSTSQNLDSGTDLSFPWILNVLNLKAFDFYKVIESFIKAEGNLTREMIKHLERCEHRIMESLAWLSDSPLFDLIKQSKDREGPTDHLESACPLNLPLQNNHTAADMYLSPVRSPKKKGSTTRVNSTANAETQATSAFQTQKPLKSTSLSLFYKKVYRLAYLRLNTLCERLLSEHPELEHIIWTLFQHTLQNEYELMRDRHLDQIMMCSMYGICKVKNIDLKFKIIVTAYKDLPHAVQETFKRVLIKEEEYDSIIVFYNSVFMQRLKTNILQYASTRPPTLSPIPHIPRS

B1: TMR-E2F1^TD, peptide of the E2F1 transactivation domain (peptide)
peptide: {TMR}-GEGIRDLFDCDFGDLTPLD
notes: also called E2F^TD; source: synthetic peptide, bought: GenScript
B2: TMR-E7^LxCxE, LxCxE peptide of the E7 oncoprotein from HPV (peptide)
peptide: DLYCYEQLN
modifications: also: TMR label, position not given here
notes: source: synthetic peptide, bought: GenScript

Tests used:
Experiment in all cases: fluorescence polarisation; 25 °C; unlabeled Rb^P titrated against 1.5 nM TMR-E2F1^TD or 7.5 nM TMR-E7^LxCxE; 25 mM Tris pH 8.0, 200 mM NaCl, 1 mM DTT, 0.1% Tween-20; 2 min incubation; quadratic fit; apparent Kd for the variants, Kd for WT
Conditions in all cases: both partners purified
Rb^P T687I = target: T1, Rb^P T687I
Rb^P I703F = target: T2, Rb^P I703F
Rb^P S443L = target: T3, Rb^P S443L
Rb^P R621P = target: T4, Rb^P R621P
Rb^P S474N = target: T5, Rb^P S474N

| Binder | Kd (Rb^P T687I) [nM] | Kd (Rb^P I703F) [nM] | Kd (Rb^P S443L) [nM] | Kd (Rb^P R621P) [nM] | Kd (Rb^P S474N) [nM] |
| --- | --- | --- | --- | --- | --- |
| B1 | 20 | 63 | 31 | 40 | 19 |
| B2 | 13 | 16 | 9 | 12 | 8 |
